Experimental findings from US20180250395A1 (Janssen / Centocor, published 2018) are described below.

The target of the experiment is T1, recombinant human CD47 extracellular domain (ECD), His-tagged, monomer (human, UniProt Q08722 19-141).
T1 construct: C-terminal 6xHis tag; monomeric fraction from Superdex 200; also called human CD47 ECD; CD47-ECD monomer
Kind of experiment: method not restated.

B1: C47B167 (antibody, V domains shown)
VH: EVQLVQSGAEVKKPGESLKISCKGSGYTFTSYWMQWVRQMPGKGLEWMGEINPSNGRTDYNEKFRGQVTISADKSISTAYLQWSSLKASDTAMYYCARQGGSGYGNSYGFFDVWGQGTTVTVSS
VL: EIVLTQSPATLSLSPGERATLSCRASSSVSYMHWYQQKPGQAPRLLIYDTSRLASGIPARFSGSGSGTDFTLTISSLEPEDFAVYYCQQWRSNPYTFGGGTKVEIK
notes: isotype not restated
Regarding B1, the Kd worked out at 5.2 nM.
